Test system: MS2 coat protein
Assay: apparent KD of MS2 coat protein; designed switch direction (-1 OFF switch, 1 ON switch): -1; higher = weaker reporter binding
In short: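 Normalised cluster fluorescence was curve-fitted, and each design's median over clusters is its apparent KD. Before this, SNAP-549-labelled MS2 coat protein was titrated from 0.7 or 1.5 nM, doubling to 3 µM, over RNA switches transcribed on Illumina chips by stalled E. coli RNA polymerase. Titrations had no input, 200 uM small-molecule ligand, or an oligonucleotide input, and steps lasted 0.8–1.5 h (lowest) to 10–20 min (highest).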

[1] = input ligand: microRNA oligo, concentration not stated
[2] = Eterna round: R95, input ligand: microRNA oligo, concentration not stated
[3] = Eterna round: R95, input ligand: FMN 200 uM
[4] = Eterna round: R95, input ligand: none

| Sequence | apparent KD of MS2 coat protein (input ligand: FMN 200 uM) [nM] | apparent KD of MS2 coat protein (input ligand: none) [nM] | apparent KD of MS2 coat protein [1] [nM] | apparent KD of MS2 coat protein [2] [nM] | apparent KD of MS2 coat protein [3] [nM] | apparent KD of MS2 coat protein [4] [nM] |
| --- | --- | --- | --- | --- | --- | --- |
| GAGAUACAUGAGGAUCACCCAUGUGAGGAUAUGAGCACGCCGGUGACGGUGAUAAGAAUCAGAAGGCACAAUGG [Mat - Exclusion 1 - JL Mod - D31] (Eterna round: R97, puzzle: Exclusion 1) | 338 | 453 | – | – | – | – |
| GCCGUCAGUGUGAGGAUAUGCCUAUGGAUACGUAGGCAGAAGGCACAUGAGGAUCACCCAUGUCCUAAGACGGC [JL-BMX4-4.33 Eli mod] (Eterna round: R97, puzzle: Brourd's mod of Exclusion 4) | 146 | 190 | – | – | – | – |
| GUACUGAAGCUUUGCUUUAGUCGUACAUGAGGAUCACCCAUGUAGGAUAUGGUAGGCUUUGCUUACUAGAAGGAUAGAGUGAUC [JL EXNG3 1.27] (Eterna round: R96, puzzle: Exclusion NG 3) | 81.7 | 119 | 31.7 | – | – | – |
| CUUUUGUGAGGAUAUCAGUAGUAAAAUAAUAAAAUAACUACUGAGAAGGCACAUGAGGAUCACCCAUGUUCCUC [Mat - Exclusion 4 - Mod of Salish - D73] (puzzle: Exclusion 4) | – | – | – | 33.9 | – | – |
| AGUAGGUCUACCUUGGUGGAUCUGCAUUUAUGCAAGUGUACAUGAGGAUCACCCAUGUCCUCAUUUGCUCGUCUUAU [JL turnoff v2 99.26] (puzzle: Sensor v3, turn-off variant 2) | – | – | – | 432 | 95 | 103 |
| CAGGAGUCACGAGGAUAUCUGGCUAAACGAACGAGAGAAGGUGUAGACUACCACAUGAGGAUCACCCAUGUUAUGACUAUACUA [Eternabot solution 30] (Eterna round: R96, puzzle: Exclusion NG 1) | 14.8 | 17.1 | 9.94 | – | – | – |
| CUGGUCCGAGGAUAUAUUAAGUGAUACAUGAGGAUCACCCAUGUAAUUUAAUGGAUAUAAAUAGAAGGCGGACUAG [Mat - Exclusion 5 - JL mod - D48] (puzzle: Exclusion 5) | – | – | – | 26.4 | 42.9 | 32.8 |
| AUAAUGUGAGGAUAUCAGUCGACUAGCUUCGGCUAGUCGACUGAGAAGGUACAUGAGGAUCACCCAUGUAGAUC [E4/20-A1] (Eterna round: R97, puzzle: Exclusion 4) | 59.9 | 40.9 | – | – | – | – |
| GGAUAUAAGUCAGGAUAUGAGCGCAACUGACGAUCAGAAGGGACACAUGAGGAUCACCCAUGUGAUCUAUCAAUAUUAUACAUG [Prohibition 93 - Jieux - Exclusion NG 1] (Eterna round: R96, puzzle: Exclusion NG 1) | 29.1 | 22.4 | 19 | – | – | – |
| GCAGGUUAAGUCAGGAUAUACCUAUGGAUACAUAGGUAGAAGGGACAUGAGGAUCACCCAUGUUCCUCACCUGC [Fiskers BMX 4 - 21] (puzzle: Brourd's mod of Exclusion 4) | – | – | – | 13.9 | – | – |
| AUUAAAAUAUAGGAUAUCGAAUAUAUUAUUUAACGAGAAGGAUGAACAUGAGGAUCACCCAUGUGGUAUCAUGG [Mat - Exclusion 6 - JL Mod - D36] (puzzle: Exclusion 6) | – | – | – | 298 | 157 | 402 |
| CCGCAAAUUGAGGAUAUCGUAUCGGAUACGAUACGAGAAGGCGAAACAUGAGGAUCACCCAUGUGUCCUAGCGG [Fiskers Ex 6 - 33] (puzzle: Exclusion 6) | – | – | – | 12 | 18.2 | 14.4 |
| UUACUCCUCGCUUGGUCACACAUGAGGAUCACCCAUGUGGGAUGCCAUGGCGUCUCAUCAAGCUUCUUUUGCUCGUG [Eternabot (Original) Solution 26] (Eterna round: R97, puzzle: Sensor, turn-off variant 1) | 20.9 | 23.8 | – | – | – | – |
| CGGUGACAUGAGGAUCACCCAUGUUAGGAUAUGACUUCGUACGCGAACAGGUAUGGAGUCAGAAGGAGCAUCCA [Eternabot (Original) Solution 45] (Eterna round: R97, puzzle: Exclusion 1) | 80.6 | 38.4 | – | – | – | – |
| UGAUCUAGCGGAGGAUAUACAUGAGGAUCACCCAUGUAGUGGUGACGUGCGUACAUGUCACCUGUGUAGAAGGCCGCUAGAUCU [JL ENG2 3.58] (Eterna round: R96, puzzle: Exclusion NG 2) | 20.1 | 14.8 | 9.65 | – | – | – |
| AUCCUCUAGAAGGAUAUGCAGGUUGAAUAAACCGCAGAAGGUUUUACAUGAGGAUCACCCAUGUGUAUAACACA [Eternabot (L2) Solution 100] (Eterna round: R97, puzzle: Exclusion 6) | 230 | 165 | – | – | – | – |
